Assay results: publication PMC4888466

Key:
[1] = substrate: O=c1ccn([C@@H]2O[C@H](COP(=O)(O)OP(=O)(O)OP(=O)(O)O)[C@@H](O)[C@H]2O)c(=O)[nH]1; experiment: purified protein; type: biochemical, Caenorhabditis elegans; conditions: 1 mM Glc-1-P, 5 mM MgCl2, pH 7.5, 25°C
[2] = substrate: O=P(O)(O)O[C@H]1O[C@H](CO)[C@@H](O)[C@H](O)[C@H]1O; experiment: purified protein; type: biochemical, Caenorhabditis elegans; conditions: 1 mM UTP, 5 mM MgCl2, pH 7.5, 25°C

B1: UGP-1 (Caenorhabditis elegans) (protein)
chain: MSNDQLKSKLREFFDRQPDQSEKAHQDSKIFEVLYSQFLENQHCIDWNSWKFLEEKHQVTLKDLEPFDKSRFNILNKLAVIKLNGGLGTTMGCSKAKSLVEVREGYTFMDLAVLEHQKMCEAHNVDTPLYLMNSFYTDEDTKKYLAEKGYSNVKTFVQSKCPRLDAETKLPIEDENEDWGDDAWCPPGHGNIFQSLQNSGVLDQLLADGREIIFVSNIDNTGANTDLQIVQLMLDKNVDYIMECTPKTQVDVKGGTLIDIGGRMMHLEMPQVPAENLPDFCSTKVFKIFNTNNIYVNLKAVKKLLPDIKSEIIVNKKTIRSREVLQLEFSIGGCIKNFDNALCVHVERKRFRPVKNLGDLLSLRSTLCDLDHSTFKVHHNHELGAPPVISLDPSIYNSVEVVDLKFPHPLVMDNCSEFAVVGDVTFGKNVKLSGKVTVNGKTESPGVVPDGTVLKDQEYIAE
Km [1]: 13.85 ± 2.95 µM | kcat [1]: 20 ± 0.7 s⁻¹ | kcat/Km [1]: 1.45e+06 ± 310000 M⁻¹ s⁻¹ | Km [2]: 77.65 ± 7.73 µM | kcat [2]: 23 ± 0.65 s⁻¹ | kcat/Km [2]: 300000 ± 31000 M⁻¹ s⁻¹
